# Earlier results, collected in publication PMC9038201.
# pKd: −log10 of the molar value.
# Target: ubiquitin (Homo sapiens) (UniProt P0CG47)
substance,measurement,value
PLpro (from UniProt P0DTD1),pKd,3.92
